Biological target: T1, recombinant human activated Factor VII (FVIIa) (human, UniProt P08709 61-212; P08709 213-466, ten glutamate residues of the Gla domain may be gamma-carboxylated)
T1 construct: chains tethered by a disulfide bond; also called Factor VIIa; rFVIIa
T1 sequence 1: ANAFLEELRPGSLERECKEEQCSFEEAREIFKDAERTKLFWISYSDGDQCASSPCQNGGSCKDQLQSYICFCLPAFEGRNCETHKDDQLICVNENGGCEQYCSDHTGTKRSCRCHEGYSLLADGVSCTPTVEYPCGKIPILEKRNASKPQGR
T1 sequence 2: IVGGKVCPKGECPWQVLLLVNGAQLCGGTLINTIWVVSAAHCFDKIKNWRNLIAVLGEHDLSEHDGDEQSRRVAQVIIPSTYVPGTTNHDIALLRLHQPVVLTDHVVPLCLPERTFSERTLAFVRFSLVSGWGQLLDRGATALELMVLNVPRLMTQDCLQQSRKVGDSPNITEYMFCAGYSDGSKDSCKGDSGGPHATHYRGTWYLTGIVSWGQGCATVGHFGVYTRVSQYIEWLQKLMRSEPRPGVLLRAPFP
Experiment: BLI (Fortebio)
Description: All steps were performed in running buffer (20 mM HEPES buffer (pH 7.4), 150 mM NaCl, 5 mM CaCl2, 0.03% Tween 20, 1 mg/ml IgG-free BSA) at […] Antibodies were captured on anti-human tips (AHC, Fortebio) for 3 min at a concentration of 10 ug/ml. This was followed by a 3 min incubation to establish a baseline. Following this, association was monitored for 3 min using four different concentrations of VIIa (25 nm, 50 nM, 100 nM, and 200 nM), followed by a 3 mi dissociation. Sensorgrams were analysed using Fortebio data analysis software.

Binder	Kd [nM]
VH SEQ ID NO 514 / VL SEQ ID NO 318 (antibody, IgG4, V domains shown, humanized 11F2; IgG4 S228P/kappa) VH: QVQLQESGPGLVEPSDTLSLTCAVSGYSITSDSAWSWIRQPPGKKLEWIGYIQYSGSTNYNPSLKSRVTMSRDTSKNQFSLKLSSVTALDTAVYYCARSVNYYGNSFAVGYWGQGTLVTVSS VL: EIVLTQSPATLSLSPGERATLSCRASQGISDYLHWYQQKPGEAPRLLIKYTSQPATGIPARFSGSGSGTDFTLTISSLEPEDFAVYYCQNGHSFPLTFGQGTKLEIK	0.99
VH SEQ ID NO 514 / VL SEQ ID NO 334 (antibody, IgG4, V domains shown, humanized 11F2; IgG4 S228P/kappa) VH: QVQLQESGPGLVEPSDTLSLTCAVSGYSITSDSAWSWIRQPPGKKLEWIGYIQYSGSTNYNPSLKSRVTMSRDTSKNQFSLKLSSVTALDTAVYYCARSVNYYGNSFAVGYWGQGTLVTVSS VL: EIVLTQSPATLSLSPGERATLSCRASQGISDYLHWYQQKPGQAPRLLIKYASQPATGIPARFSGSGSGTDFTLTISSLEPEDFAVYYCQNGHSFPLTFGQGTKLEIK	1.1
VH SEQ ID NO 514 / VL SEQ ID NO 350 (antibody, IgG4, V domains shown, humanized 11F2; IgG4 S228P/kappa) VH: QVQLQESGPGLVEPSDTLSLTCAVSGYSITSDSAWSWIRQPPGKKLEWIGYIQYSGSTNYNPSLKSRVTMSRDTSKNQFSLKLSSVTALDTAVYYCARSVNYYGNSFAVGYWGQGTLVTVSS VL: EIVLTQSPATLSLSPGERATLSCRASQGISDYLHWYQQKPGQAPRLLIKYTSQPATGIPARFSGSGSGTDFTLTISSLEPEDFAVYYCQNGHSFPLTFGAGTKLELK	0.94
VH SEQ ID NO 514 / VL SEQ ID NO 358 (antibody, IgG4, V domains shown, humanized 11F2; IgG4 S228P/kappa) VH: QVQLQESGPGLVEPSDTLSLTCAVSGYSITSDSAWSWIRQPPGKKLEWIGYIQYSGSTNYNPSLKSRVTMSRDTSKNQFSLKLSSVTALDTAVYYCARSVNYYGNSFAVGYWGQGTLVTVSS VL: EIVLTQSPATLSLSPGERATLSCRASQGISDYLHWYQQKPGQAPRLLIKYTSQPATGIPARFSGSGSGTDFTLTISSLEPEDFAVYYCQNGHSFPLTFGQGTKLEIK	0.87
VH SEQ ID NO 514 / VL SEQ ID NO 366 (antibody, IgG4, V domains shown, humanized 11F2; IgG4 S228P/kappa) VH: QVQLQESGPGLVEPSDTLSLTCAVSGYSITSDSAWSWIRQPPGKKLEWIGYIQYSGSTNYNPSLKSRVTMSRDTSKNQFSLKLSSVTALDTAVYYCARSVNYYGNSFAVGYWGQGTLVTVSS VL: EIVLTQSPATLSLSPGERATLSCRASQGLSDYLAWYQQKPGEAPRLLIKYASQPATGIPARFSGSGSGTDFTLTISSLEPEDFAVYYCQNGHSFPLTFGQGTKLEIK	1.4
VH SEQ ID NO 514 / VL SEQ ID NO 382 (antibody, IgG4, V domains shown, humanized 11F2; IgG4 S228P/kappa) VH: QVQLQESGPGLVEPSDTLSLTCAVSGYSITSDSAWSWIRQPPGKKLEWIGYIQYSGSTNYNPSLKSRVTMSRDTSKNQFSLKLSSVTALDTAVYYCARSVNYYGNSFAVGYWGQGTLVTVSS VL: EIVLTQSPATLSLSPGERATLSCRASQGLSDYLHWYQQKPGEAPRLLIKYASQPATGIPARFSGSGSGTDFTLTISSLEPEDFAVYYCQNGHSFPLTFGQGTKLEIK	1.2
VH SEQ ID NO 514 / VL SEQ ID NO 390 (antibody, IgG4, V domains shown, humanized 11F2; IgG4 S228P/kappa) VH: QVQLQESGPGLVEPSDTLSLTCAVSGYSITSDSAWSWIRQPPGKKLEWIGYIQYSGSTNYNPSLKSRVTMSRDTSKNQFSLKLSSVTALDTAVYYCARSVNYYGNSFAVGYWGQGTLVTVSS VL: EIVLTQSPATLSLSPGERATLSCRASQGVSDYLAWYQQKPGEAPRLLIKYASQPATGIPARFSGSGSGTDFTLTISSLEPEDFAVYYCQNGHSFPLTFGQGTKLEIK	4.7
VH SEQ ID NO 514 / VL SEQ ID NO 398 (antibody, IgG4, V domains shown, humanized 11F2; IgG4 S228P/kappa) VH: QVQLQESGPGLVEPSDTLSLTCAVSGYSITSDSAWSWIRQPPGKKLEWIGYIQYSGSTNYNPSLKSRVTMSRDTSKNQFSLKLSSVTALDTAVYYCARSVNYYGNSFAVGYWGQGTLVTVSS VL: EIVLTQSPATLSLSPGERATLSCRASQGVSDYLAWYQQKPGEAPRLLIKYTSQPATGIPARFSGSGSGTDFTLTISSLEPEDFAVYYCQNGHSFPLTFGQGTKLEIK	7.9
VH SEQ ID NO 514 / VL SEQ ID NO 406 (antibody, IgG4, V domains shown, humanized 11F2; IgG4 S228P/kappa) VH: QVQLQESGPGLVEPSDTLSLTCAVSGYSITSDSAWSWIRQPPGKKLEWIGYIQYSGSTNYNPSLKSRVTMSRDTSKNQFSLKLSSVTALDTAVYYCARSVNYYGNSFAVGYWGQGTLVTVSS VL: EIVLTQSPATLSLSPGERATLSCRASQGVSDYLAWYQQKPGQAPRLLIKYASQPATGIPARFSGSGSGTDFTLTISSLEPEDFAVYYCQNGHSFPLTFGAGTKLEIK	5.3
VH SEQ ID NO 514 / VL SEQ ID NO 414 (antibody, IgG4, V domains shown, humanized 11F2; IgG4 S228P/kappa) VH: QVQLQESGPGLVEPSDTLSLTCAVSGYSITSDSAWSWIRQPPGKKLEWIGYIQYSGSTNYNPSLKSRVTMSRDTSKNQFSLKLSSVTALDTAVYYCARSVNYYGNSFAVGYWGQGTLVTVSS VL: EIVLTQSPATLSLSPGERATLSCRASQGVSDYLAWYQQKPGQAPRLLIKYASQPATGIPARFSGSGSGTDFTLTISSLEPEDFAVYYCQNGHSFPLTFGQGTKLEIK	4.6
VH SEQ ID NO 514 / VL SEQ ID NO 422 (antibody, IgG4, V domains shown, humanized 11F2; IgG4 S228P/kappa) VH: QVQLQESGPGLVEPSDTLSLTCAVSGYSITSDSAWSWIRQPPGKKLEWIGYIQYSGSTNYNPSLKSRVTMSRDTSKNQFSLKLSSVTALDTAVYYCARSVNYYGNSFAVGYWGQGTLVTVSS VL: EIVLTQSPATLSLSPGERATLSCRASQGVSDYLAWYQQKPGQAPRLLIKYASQPATGIPARFSGSGSGTDFTLTISSLEPEDFAVYYCQQGHSFPLTFGQGTKLEIK	68
VH SEQ ID NO 514 / VL SEQ ID NO 430 (antibody, IgG4, V domains shown, humanized 11F2; IgG4 S228P/kappa) VH: QVQLQESGPGLVEPSDTLSLTCAVSGYSITSDSAWSWIRQPPGKKLEWIGYIQYSGSTNYNPSLKSRVTMSRDTSKNQFSLKLSSVTALDTAVYYCARSVNYYGNSFAVGYWGQGTLVTVSS VL: EIVLTQSPATLSLSPGERATLSCRASQGVSDYLAWYQQKPGQAPRLLIKYASQPATGIPARFSGSGSGTDFTLTISSLEPEDFGVYYCQNGHSFPLTFGQGTKLEIK	7.1
VH SEQ ID NO 514 / VL SEQ ID NO 438 (antibody, IgG4, V domains shown, humanized 11F2; IgG4 S228P/kappa) VH: QVQLQESGPGLVEPSDTLSLTCAVSGYSITSDSAWSWIRQPPGKKLEWIGYIQYSGSTNYNPSLKSRVTMSRDTSKNQFSLKLSSVTALDTAVYYCARSVNYYGNSFAVGYWGQGTLVTVSS VL: EIVLTQSPATLSLSPGERATLSCRASQGVSDYLAWYQQKPGQAPRLLIKYASQPATGIPARFSGSGSGTDFTLTISSLEPEDVAVYYCQNGHSFPLTFGQGTKLEIK	5.4
VH SEQ ID NO 514 / VL SEQ ID NO 446 (antibody, IgG4, V domains shown, humanized 11F2; IgG4 S228P/kappa) VH: QVQLQESGPGLVEPSDTLSLTCAVSGYSITSDSAWSWIRQPPGKKLEWIGYIQYSGSTNYNPSLKSRVTMSRDTSKNQFSLKLSSVTALDTAVYYCARSVNYYGNSFAVGYWGQGTLVTVSS VL: EIVLTQSPATLSLSPGERATLSCRASQGVSDYLAWYQQKPGQAPRLLIKYTSQPATGIPARFSGSGSGTDFTLTISSLEPEDFAVYYCQNGHSFPLTFGQGTKLEIK	7.7
VH SEQ ID NO 514 / VL SEQ ID NO 454 (antibody, IgG4, V domains shown, humanized 11F2; IgG4 S228P/kappa) VH: QVQLQESGPGLVEPSDTLSLTCAVSGYSITSDSAWSWIRQPPGKKLEWIGYIQYSGSTNYNPSLKSRVTMSRDTSKNQFSLKLSSVTALDTAVYYCARSVNYYGNSFAVGYWGQGTLVTVSS VL: EIVLTQSPATLSLSPGERATLSCRASQGVSDYLHWYQQKPGEAPRLLIKYASQPATGIPARFSGSGSGTDFTLTISSLEPEDFAVYYCQNGHSFPLTFGQGTKLEIK	1.3
VH SEQ ID NO 514 / VL SEQ ID NO 462 (antibody, IgG4, V domains shown, humanized 11F2; IgG4 S228P/kappa) VH: QVQLQESGPGLVEPSDTLSLTCAVSGYSITSDSAWSWIRQPPGKKLEWIGYIQYSGSTNYNPSLKSRVTMSRDTSKNQFSLKLSSVTALDTAVYYCARSVNYYGNSFAVGYWGQGTLVTVSS VL: EIVLTQSPATLSLSPGERATLSCRASQGVSDYLHWYQQKPGQAPRLLIKYASQPATGIPARFSGSGSGTDFTLTISSLEPEDFAVYYCQNGHSFPLTFGAGTKLEIK	1.2
VH SEQ ID NO 514 / VL SEQ ID NO 470 (antibody, IgG4, V domains shown, humanized 11F2; IgG4 S228P/kappa) VH: QVQLQESGPGLVEPSDTLSLTCAVSGYSITSDSAWSWIRQPPGKKLEWIGYIQYSGSTNYNPSLKSRVTMSRDTSKNQFSLKLSSVTALDTAVYYCARSVNYYGNSFAVGYWGQGTLVTVSS VL: EIVLTQSPATLSLSPGERATLSCRASQGVSDYLHWYQQKPGQAPRLLIKYASQPATGIPARFSGSGSGTDFTLTISSLEPEDFAVYYCQNGHSFPLTFGQGTKLEIK	1.2
VH SEQ ID NO 514 / VL SEQ ID NO 478 (antibody, IgG4, V domains shown, humanized 11F2; IgG4 S228P/kappa) VH: QVQLQESGPGLVEPSDTLSLTCAVSGYSITSDSAWSWIRQPPGKKLEWIGYIQYSGSTNYNPSLKSRVTMSRDTSKNQFSLKLSSVTALDTAVYYCARSVNYYGNSFAVGYWGQGTLVTVSS VL: EIVLTQSPATLSLSPGERATLSCRASQGVSDYLHWYQQKPGQAPRLLIKYASQPATGIPARFSGSGSGTDFTLTISSLEPEDFAVYYCQQGHSFPLTFGQGTKLEIK	1.9
VH SEQ ID NO 514 / VL SEQ ID NO 486 (antibody, IgG4, V domains shown, humanized 11F2; IgG4 S228P/kappa) VH: QVQLQESGPGLVEPSDTLSLTCAVSGYSITSDSAWSWIRQPPGKKLEWIGYIQYSGSTNYNPSLKSRVTMSRDTSKNQFSLKLSSVTALDTAVYYCARSVNYYGNSFAVGYWGQGTLVTVSS VL: EIVLTQSPATLSLSPGERATLSCRASQGVSDYLHWYQQKPGQAPRLLIKYASQPATGIPARFSGSGSGTDFTLTISSLEPEDFGVYYCQNGHSFPLTFGQGTKLEIK	0.95

Source: patent publication US20220064329A1 (Novo Nordisk, published 2022)
